Results on 2 molecules are retold here after US20250002610A1 (Genmab, published 2025).

Assay [1] addresses T1, His-tagged recombinant human FAPα (R&D Systems, Cat #3715-SE) (human, UniProt Q12884 26-760).
T1 construct: not shown: His tag
T1 sequence (looked up): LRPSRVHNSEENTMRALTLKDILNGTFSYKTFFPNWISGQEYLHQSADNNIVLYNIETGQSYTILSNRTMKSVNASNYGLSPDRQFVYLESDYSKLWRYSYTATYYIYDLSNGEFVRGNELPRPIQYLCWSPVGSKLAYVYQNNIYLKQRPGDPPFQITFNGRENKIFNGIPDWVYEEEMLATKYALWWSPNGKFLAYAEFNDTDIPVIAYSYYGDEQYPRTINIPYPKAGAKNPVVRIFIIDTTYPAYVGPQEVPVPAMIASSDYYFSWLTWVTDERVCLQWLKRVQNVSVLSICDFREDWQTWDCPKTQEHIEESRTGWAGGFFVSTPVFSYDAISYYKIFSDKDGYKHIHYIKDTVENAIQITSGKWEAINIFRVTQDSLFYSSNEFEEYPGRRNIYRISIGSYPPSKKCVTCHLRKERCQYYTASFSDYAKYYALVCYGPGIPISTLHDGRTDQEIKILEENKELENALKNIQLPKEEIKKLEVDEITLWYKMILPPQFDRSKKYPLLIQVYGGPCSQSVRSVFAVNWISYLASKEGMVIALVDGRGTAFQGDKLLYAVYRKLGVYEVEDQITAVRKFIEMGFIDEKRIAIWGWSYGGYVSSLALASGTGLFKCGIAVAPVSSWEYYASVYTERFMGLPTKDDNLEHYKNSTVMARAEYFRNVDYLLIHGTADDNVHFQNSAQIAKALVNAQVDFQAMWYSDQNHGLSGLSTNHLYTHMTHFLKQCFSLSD
Nature of the assay: BLI sandwich cross-block assay. Here is the method: Sandwich cross-block experiments were carried out while shaking at 1,000 RPM at 30° C. […] The activated AR2G sensors were loaded with 10 μg/mL of the first antibody in 10 mM Sodium Acetate pH 6.0 (ForteBio, cat. no. 18-1070) for 600 s and quenched with 1 M ethanolamine pH 8.5 (ForteBio, Cat. #18-1071) for 300 s. After a baseline measurement in Sample Diluent (30 s; FortéBio, Cat. #18-1048), the AR2G biosensors containing immobilized antibodies were loaded for 200 s with His-tagged recombinant human FAPα (R&D Systems, Cat #3715-SE, 100 nM in Sample Diluent) for 200 s. The theoretical molecular mass of His-tagged recombinant human FAPα protein based on the amino acid sequence (86 kDa) was used for calculations. The association (200 s) of a second antibody (5 μg/mL in Sample Diluent) was determined. Sensors were regenerated by exposure to 10 mM glycine pH 2.5 (Riedl-deHaen, Cat. #15527) for 5 s, followed by neutralization in Sample Diluent for 5 s; both steps were repeated twice. Subsequently, the sensors containing immobilized first antibody were used again, starting with the baseline step.
Data were acquired using Data Acquisition Software v9 (ForteBio) and analyzed with Data Analysis HT Software v9 (ForteBio). The Y-axis was aligned to the start of the association step and Savitzky-Golay filtering was applied. […]

The target in assay [2] is T2, human DR4 (Death Receptor 4), cell surface expressed on human tumor cell lines (human, UniProt O00220 24-468).
T2 construct: also called TNFRSF10A; TRAIL-R1
T2 sequence: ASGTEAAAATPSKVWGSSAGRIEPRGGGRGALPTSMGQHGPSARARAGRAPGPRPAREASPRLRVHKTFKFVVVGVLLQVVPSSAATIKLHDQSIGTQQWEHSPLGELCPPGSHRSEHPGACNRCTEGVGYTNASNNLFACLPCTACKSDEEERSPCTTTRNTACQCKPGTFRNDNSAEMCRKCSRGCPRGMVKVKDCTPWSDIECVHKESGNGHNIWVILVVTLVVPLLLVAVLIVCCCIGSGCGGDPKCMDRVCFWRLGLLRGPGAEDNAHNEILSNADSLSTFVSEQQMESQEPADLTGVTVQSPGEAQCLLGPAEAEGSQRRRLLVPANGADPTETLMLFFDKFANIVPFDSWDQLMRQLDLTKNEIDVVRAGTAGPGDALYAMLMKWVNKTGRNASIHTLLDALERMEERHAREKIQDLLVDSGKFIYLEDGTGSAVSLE
Nature of the assay: flow cytometry, HCT-15 cells, average ± SEM; HCT-15 cells, average of n = 3. A general note: In flow cytometry, cells or beads pass a laser one at a time.

Assay [3] deals with T3, cynomolgus monkey DR4 with death domain deletion on ExpiCHO-S cells (cynomolgus monkey (Macaca fascicularis)).
T3 construct: also called cynomolgus DR4
T3 chain: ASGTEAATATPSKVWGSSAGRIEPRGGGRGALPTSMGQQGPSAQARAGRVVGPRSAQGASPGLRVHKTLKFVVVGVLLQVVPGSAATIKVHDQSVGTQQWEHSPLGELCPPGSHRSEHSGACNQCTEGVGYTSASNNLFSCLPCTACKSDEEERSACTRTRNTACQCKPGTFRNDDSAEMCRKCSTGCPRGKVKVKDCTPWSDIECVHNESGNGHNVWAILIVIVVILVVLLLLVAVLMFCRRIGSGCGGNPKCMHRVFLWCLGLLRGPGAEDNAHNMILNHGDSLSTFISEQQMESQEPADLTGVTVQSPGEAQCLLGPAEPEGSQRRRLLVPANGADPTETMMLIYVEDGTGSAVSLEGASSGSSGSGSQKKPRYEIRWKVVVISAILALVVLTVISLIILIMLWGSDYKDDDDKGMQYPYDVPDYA
Nature of the assay: flow cytometry, ExpiCHO-S cells expressing cynomolgus monkey DR4, average ± SEM. Here is the method:
Binding of BisG1-FAPα-FERL/DR4-FERR, BisG1-DR4-FEAL/b12-FEAR and IgG1-DR4-FERR to DR4 of various species commonly used for nonclinical toxicology studies was assessed by flow cytometry using ExpiCHO-S cells transiently expressing DR4 from different animal species. In contrast to other species, rodents only express one DR which has highest homology with human DR5. Therefore, ExpiCHO-S cells transiently expressing rat and mouse DR protein were used instead. All DR constructs lack the intracellular DD to avoid apoptosis of transfected cells upon DR(4) activation. IgG1-b12 was used as negative control.

B1: IgG1-b12 (antibody)
heavy: not shown
light: EIVLTQSPGTLSLSPGERATFSCRSSHSIRSRRVAWYQHKPGQAPRLVIHGVSNRASGISDRFSGSGSGTDFTLTITRVEPEDFALYYCQVYGASSYTFGQGTKLERKRTVAAPSVFIFPPSDEQLKSGTASVVCLLNNFYPREAKVQWKVDNALQSGNSQESVTEQDSKDSTYSLSSTLTLSKADYEKHKVYACEVTHQGLSSPVTKSFNRGEC
notes: HIV gp120 antibody b12 with wild-type IgG1 Fc; also called IgG-b12
In the case of B1, the binding result in assay [1] is listed as “no binding”.

B2: IgG1-DR4-FERR (antibody, V domains shown)
VH: QVQLQESGPGLVKPSGTLSLTCAVSGGSISSYSWWSWIRQPPGKGLEWIGELYHSGSTNYNPSLKSRVTISVDKSKNQFSLKLRSVTAADTAVYYCVRGVATIDYWGQGTLVTVSS
VL: QSALTQPPSASGSPGQSVTISCTGTSSDVGGYNFVSWYQQDPGKAPKLLIYEVTKRPSGVPDRFSGSKSGNTASLTVSGLQAEDEADYYCSSYAGSNNVMFGGGTKLTVLG
notes: Bivalent monoclonal IgG1 lambda
Take B2: the EC50 in assay [2] turned out to be 0.17 mg/L; in assay [3], 1.84 mg/L.

In general, EC50 refers to the concentration that produces a half-maximal response.
